According to PMC5764468 (PLoS Biology, 2017):

Molecular target: T1, Human calmodulin (CaM) (human, UniProt P0DP23 1-149)
T1 construct: also called full-length CaM
Assay: SEC-SAXS
Conditions: both partners purified

stoichiometry N: 1 P_(MLCK) per CaM
B1: CaM-binding peptide (P_(MLCK)) from the smooth muscle myosin light-chain kinase (peptide)
peptide: Ac-RRKWQKTGHAVRAIGRLSS-NH2
notes: also called myosin light-chain kinase peptide; MLCK peptide
